In patent publication US20210388081A1 (Memorial Sloan Kettering, published 2021):

Experiments:
[1] = molecular target: T1, Fc Receptor-like 5 (FcRL5), full length, overexpressed on 3T3 or Raji cells (human, UniProt Q96RD9 16-977); assay: phage clone screening on cells
T1 construct: also called 3T3-FcRL5
T1 sequence: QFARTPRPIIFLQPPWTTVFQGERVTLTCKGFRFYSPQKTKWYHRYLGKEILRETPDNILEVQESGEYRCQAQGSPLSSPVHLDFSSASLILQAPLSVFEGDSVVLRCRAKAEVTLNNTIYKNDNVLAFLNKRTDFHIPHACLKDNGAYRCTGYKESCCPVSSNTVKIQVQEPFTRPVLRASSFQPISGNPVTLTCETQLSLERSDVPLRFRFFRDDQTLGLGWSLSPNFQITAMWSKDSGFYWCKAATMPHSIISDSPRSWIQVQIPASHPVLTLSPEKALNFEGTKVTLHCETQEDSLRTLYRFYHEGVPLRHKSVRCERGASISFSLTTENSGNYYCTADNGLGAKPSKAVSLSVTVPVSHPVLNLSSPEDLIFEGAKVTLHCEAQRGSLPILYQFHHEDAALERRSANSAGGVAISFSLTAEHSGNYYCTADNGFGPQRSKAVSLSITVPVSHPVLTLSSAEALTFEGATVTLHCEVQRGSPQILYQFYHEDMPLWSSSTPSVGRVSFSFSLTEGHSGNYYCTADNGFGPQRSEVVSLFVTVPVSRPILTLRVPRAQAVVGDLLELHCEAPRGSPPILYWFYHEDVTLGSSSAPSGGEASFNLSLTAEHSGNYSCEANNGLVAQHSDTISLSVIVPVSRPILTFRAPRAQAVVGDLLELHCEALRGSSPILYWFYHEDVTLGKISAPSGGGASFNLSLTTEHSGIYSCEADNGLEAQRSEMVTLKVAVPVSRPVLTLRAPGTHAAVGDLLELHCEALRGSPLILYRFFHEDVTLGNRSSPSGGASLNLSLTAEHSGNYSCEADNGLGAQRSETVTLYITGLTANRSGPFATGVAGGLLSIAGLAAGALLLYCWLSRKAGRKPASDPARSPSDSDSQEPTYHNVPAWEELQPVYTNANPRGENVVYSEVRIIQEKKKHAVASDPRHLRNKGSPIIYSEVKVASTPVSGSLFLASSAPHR
Description: Once selected, positive scFv clones are further tested for their binding to FcRL5 (e.g., human FcRL5) on live 3T3 cell surfaces by flow cytometry. Briefly, phage clones are incubated with 3T3 cells over-expressing FcRL5. The cells are washed and then incubated with a mouse anti-M13 coat protein mAb. Cells are washed again and labeled with a PE-horse anti-mouse Ig prior to flow cytometry.
Phage′ display against FcRL5 was performed to enrich for scFv phage clones that bind to FcRL5 specifically. Screening was carried out on FcRL5 overexpressing 3T3 cells or 3T3 cells expressing FcRL1, 2, 3, 4 or 6 as a negative control (FIG. 2).

[2] = molecular target: T2, FcRL3, overexpressed on 3T3 cells (UniProt Q96P31 18-734, limits assumed); assay: phage clone on 3T3-FcRL3 cells
T2 construct: whole, on cells
T2 sequence (looked up): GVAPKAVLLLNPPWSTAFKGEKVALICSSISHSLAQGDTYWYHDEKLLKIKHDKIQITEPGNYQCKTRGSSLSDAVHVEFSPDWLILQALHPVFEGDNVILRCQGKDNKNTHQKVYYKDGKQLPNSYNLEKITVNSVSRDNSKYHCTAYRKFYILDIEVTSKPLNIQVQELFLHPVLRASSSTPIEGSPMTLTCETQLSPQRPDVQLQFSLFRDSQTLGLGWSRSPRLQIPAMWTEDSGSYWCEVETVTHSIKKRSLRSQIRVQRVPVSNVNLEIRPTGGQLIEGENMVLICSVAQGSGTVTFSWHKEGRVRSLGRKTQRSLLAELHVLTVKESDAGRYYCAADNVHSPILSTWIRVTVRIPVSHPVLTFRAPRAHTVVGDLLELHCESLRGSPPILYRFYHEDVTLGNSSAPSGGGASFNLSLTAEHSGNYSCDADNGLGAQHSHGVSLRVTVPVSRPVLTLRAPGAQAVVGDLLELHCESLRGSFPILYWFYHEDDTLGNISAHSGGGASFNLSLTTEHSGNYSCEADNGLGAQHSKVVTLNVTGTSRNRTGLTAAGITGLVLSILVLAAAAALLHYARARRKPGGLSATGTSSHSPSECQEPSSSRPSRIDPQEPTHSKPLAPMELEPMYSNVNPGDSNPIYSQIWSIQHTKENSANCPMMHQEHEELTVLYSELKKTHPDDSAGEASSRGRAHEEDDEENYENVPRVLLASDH

[3] = molecular target: T3, FcRL4, overexpressed on 3T3 cells (UniProt Q96PJ5 20-515, limits assumed); assay: phage clone on 3T3-FcRL4 cells
T3 construct: whole, on cells
T3 sequence (looked up): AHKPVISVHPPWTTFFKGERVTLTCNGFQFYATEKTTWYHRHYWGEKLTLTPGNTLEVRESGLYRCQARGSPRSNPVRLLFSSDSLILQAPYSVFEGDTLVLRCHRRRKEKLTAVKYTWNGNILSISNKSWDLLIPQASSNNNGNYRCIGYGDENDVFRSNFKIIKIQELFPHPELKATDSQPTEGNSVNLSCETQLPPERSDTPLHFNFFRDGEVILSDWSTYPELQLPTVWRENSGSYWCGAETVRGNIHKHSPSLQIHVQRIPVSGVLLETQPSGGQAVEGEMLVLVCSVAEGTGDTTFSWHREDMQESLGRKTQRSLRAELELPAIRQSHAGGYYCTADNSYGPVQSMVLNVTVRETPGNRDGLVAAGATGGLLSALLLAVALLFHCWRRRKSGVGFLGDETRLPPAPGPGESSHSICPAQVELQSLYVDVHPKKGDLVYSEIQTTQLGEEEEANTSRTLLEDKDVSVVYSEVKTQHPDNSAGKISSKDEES

[4] = molecular target: T4, FcRL2, overexpressed on 3T3 cells (UniProt Q96LA5 20-508, limits assumed); assay: phage clone on 3T3-FcRL2 cells
T4 construct: whole, on cells
T4 sequence (looked up): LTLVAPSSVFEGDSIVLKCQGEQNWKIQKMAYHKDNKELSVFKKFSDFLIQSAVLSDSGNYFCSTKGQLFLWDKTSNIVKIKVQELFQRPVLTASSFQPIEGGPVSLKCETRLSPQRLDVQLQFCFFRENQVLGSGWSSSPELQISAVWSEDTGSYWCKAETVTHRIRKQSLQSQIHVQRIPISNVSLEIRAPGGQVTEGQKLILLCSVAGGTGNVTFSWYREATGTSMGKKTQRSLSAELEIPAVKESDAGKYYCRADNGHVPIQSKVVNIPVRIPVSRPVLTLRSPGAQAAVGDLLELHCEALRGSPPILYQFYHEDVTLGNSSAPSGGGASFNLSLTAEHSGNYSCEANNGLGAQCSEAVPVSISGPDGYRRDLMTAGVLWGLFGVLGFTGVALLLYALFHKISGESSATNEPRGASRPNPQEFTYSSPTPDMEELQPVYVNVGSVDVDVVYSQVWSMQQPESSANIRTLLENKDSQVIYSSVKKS

B1: ET200-018 (scFv)
scFv: QAVLTQPPSTSGTPGQRVTISCSGSSSNIGRNGVNWYQQLPGAAPKVLIYNDNQRPSGVPDRVSGSQSGSSGTLAIDGLRSEDEADYYCAAWDDSLHGVVFGGGTKLTVLGSRGGGGSGGGGSGGGGSLEMAQVQLVQSGAEVKKPGASVKVSCKVSGYTLNELSMHWVRQAPGKGLEWMGGFDPEDGETIYAQKFQGRVTMTEDTSTDTAYMELSSLRSEDTAVYYCARGGYGDSWGQGTLVTVSSTSGQAGQHHHHHHGAYPYDVPDYAS
notes: screened as phage clone; entry is VL-linker-VH-His tag-HA tag
binding result [1]: binds | binding result [2]: no binding | binding result [3]: no binding | binding result [4]: no binding

B2: ET200-012 (scFv)
scFv: QSVLTQPPSVSAAAGQKVTISCSGSDSNIGNNYVSWYQHLPGTAPKLLIYDVKNRPSGIPDRFSGSKSGSSATLGIAGLQPGDEADYYCGTWDSRLDAYVFGTGTKVTVLGSRGGGGSGGGGSGGGGSLEMAQMQLVQSGAEVKKPGASVKVSCKTSGFPFNIFGITWVRQAPGQGLEWMGWISGYNGNTDYPQKFQGRVTMSTDTSTSTAYMELRNLKSDDTAVYYCARGAYGGMDTWGQGTLVTVSSTSGQAGQHHHHHHGAYPYDVPDYAS
notes: as for B1
binding result [1]: binds | binding result [2]: no binding | binding result [3]: no binding | binding result [4]: no binding

B3: ET200-014 (scFv)
scFv: SYVLTQPPSVSVAPGKTARITCGGNNIGSKSVHWYQQKPGQAPVLVIYYDSDRPSGIPERFSGSNSGNTATLTISRVEAGDEADYYCQVWDSSSDHYVFGTGTKVTVLGSRGGGGSGGGGSGGGGSLEMAEVQLVETGGGLVQPGGSLRLSCAASGFTFSSYAMSWVRQAPGKGLEWVSAISGSDGSTYYADSVKGRFTISRDNSKNTLYLQMNSLRDEDTAVYYCARSHEANLVGDWWGQGTLVTVSSTSGQAGQHHHHHHGAYPYDVPDYAS
notes: as for B1
binding result [1]: binds | binding result [2]: no binding | binding result [3]: no binding | binding result [4]: no binding

B4: ET200-017 (scFv)
scFv: SYVLTQPPSVSVAPGKTARITCGGNNIGSKSVHWYQQKPGQAPVLVVYDDSDRPSGIPERFSGSNSGNTATLSISRVEAGDEADYYCQVWDSSSDHTVFGTGTKVTVLGSRGGGGSGGGGSGGGGSLEMAQVQLQQWGAGLLKPSETLSLTCAVYGGSFSGYYWSWIRQPPGKGLEWIGEINHSGSTNYNPSLKSRVTISVDTSKNQFSLKLSSVTAADTAVYYCARYYPGMDMWGQGTLVTVSSTSGQAGQHHHHHHGAYPYDVPDYAS
notes: as for B1
binding result [1]: binds | binding result [2]: no binding | binding result [3]: no binding | binding result [4]: no binding

B5: ET200-016 (scFv)
scFv: SSELTQDPAVSVALGQTVKITCQGDSLTDYHATWYQQKPGQAPVAVIYATNNRPTGIPDRFSGSSSGNTASLTITGAQAEDEADYYCNSRDSGTDEVLFGGGTKLTVLGSRGGGGSGGGGSGGGGSLEMAEVQLVETGGGLVKPGGSLRLSCAASGFTFSSYSMNWVRQAPGKGLEWVSSISSSSSYIYYADSVKGRFTISRDNAKNSLYLQMNSLRAEDTAVYYCARGQGYDYWGQGTLVTVSSTSGQAGQHHHHHHGAYPYDVPDYAS
notes: as for B1
binding result [1]: binds | binding result [2]: no binding | binding result [3]: no binding | binding result [4]: no binding

B6: ET200-011 (scFv)
scFv: QSVVTQPPSVSAAPGQRVTISCSGSSSNISIYDVSWYQQLPGTAPKLLIYGNNKRPSGIADRFSGSTSGTSATLGITGLQTGDEADYYCGTWDDSLSGGVFGGGTKLTVLGSRGGGGSGGGGSGGGGSLEMAQMQLVQSGAEVKKPGSSVKVSCEASGGTLSSYAINWVRQAPGQGLEWMGGIIPMFGTAHYAQKFQGRVTITADESTKTAYMELSSLRSEDTAVYYCARGVHYASFDHWGQGTLVTVSSTSGQAGQHHHHHHGAYPYDVPDYAS
notes: as for B1
binding result [1]: binds | binding result [2]: no binding | binding result [3]: no binding | binding result [4]: no binding

B7: ET200-013 (scFv)
scFv: QSVVTQPPSVSGAPGQRVTISCTGSTSNIGAGYDVHWYQQLPGTAPKLLIYTNNFRPSGVPDRFSASKSGTSASLAITGLQAEDEADYYCGTWDSSLSAVVFGGGTKLTVLGSRGGGGSGGGGSGGGGSLEMAEVQLVESGTEVKKPGASVKVSCKASGYMFTSYGLNWVRQAPGQGLEWMGWISANNGKTNYAKKFQDRVTMTRDTSTSTGYMELRSLRSDDTAVYYCARHIGGSYFDRWGQGTLVTVSSTSGQAGQHHHHHHGAYPYDVPDYAS
notes: as for B1
binding result [1]: binds | binding result [2]: no binding | binding result [3]: no binding | binding result [4]: no binding

B8: ET200-015 (scFv)
scFv: QSVVTQPPSVSVAPGKTARITCGGNNIGSKSVHWYQQKPGQAPVLVIYYDSDRPSGIPERFSGSNSGNTATLTISRVEAGDEADYYCQVWDSSSDVVFGGGTKLTVLGSRGGGGSGGGGSGGGGSLEMAEVQLVQSGAEVKKPGASVKVSCKASGYTFTSYGISWVRQAPGQGLEWMGWISAYNGNTNYAQKLQGRVTMTTDTSTSTAYMELRSLRSDDTAVYYCARWGGFGAVDHWGQGTLVTVSSTSGQAGQHHHHHHGAYPYDVPDYAS
notes: as for B1
binding result [1]: binds | binding result [2]: no binding | binding result [3]: no binding | binding result [4]: no binding
